2 substances from patent US8388937B2, “Specific peptide binding to glypican-3” (Kyungpook National University Industry—Academic Cooperation …, priority 2009, dated 2013) can be followed below.

Where no end group is shown, it is not given here. The star is where a group is joined. FITC = O=C1OC2(c3ccc(O)cc3Oc3cc(O)ccc32)c2ccc(NC(=S)*)cc21

Format in all cases: cell-based
The target of assay [1] is T1, GPC-3 protein (Homo sapiens, UniProt P51654). Description: Overlay assay of FITC-labeled peptide on cell lines in which GPC-3 protein was expressed. Details: the human hepatocellular carcinoma cell line HepG2 in which GPC-3 protein was expressed; endogenous in cells; host or cells: HepG2, Huh-7, SkMel28 (ATCC). How it is done: (§1) The peptide synthesized in Example 8 was subjected to an overlay assay. First, the human hepatocellular carcinoma cells (HepG2, Huh-7) and the renal cell (HEK293) were cultured to about 1×10^5 in an 8-well chamber slide, followed by washing three times with PBS for three min. In order to prevent non-specific reactions, a reaction was performed in Opti-MEM supplemented with 1% BSA for 1 hour. Again, washing was performed three times with PBS for three min, and then cells were fixed with a fixative containing ethanol and acetone at 2:1 for 3 min. The cells were mounted in Mounting medium supplemented with DAPI. FIGS. 8 through 10 illustrate the results.

Assay [2] relates to renal cell lines in which GPC-3 protein was not expressed (HEK-293, Cos-7). Description: Overlay assay of FITC-labeled peptide on cells in which GPC-3 protein was not expressed. The procedure: as §1
Assay [3] addresses T1, GPC-3 protein. Description: Overlay assay on HepG2 in competition with equivalent peptide to which FITC was not bound. More on the design: the human hepatocellular carcinoma cell line HepG2 in which GPC-3 protein was expressed; endogenous in cells; host or cells: HepG2. The settings on record: competition with unlabeled peptide for bonding to GPC-3 protein. How it is done:
as §1
FIG. 9 illustrates image results obtained from reaction of a peptide (FITC-RLNVGGTYFLTTRQ) containing the amino acid sequence of SEQ ID No.1 to the human hepatocellular carcinoma cell line HepG2 in which GPC-3 protein was expressed with an equivalent peptide to which FITC were not bound. […] Because a peptide in which a fluorescent material was not labeled and a fluorescent material labeled peptide were competing for bonding to GPC-3 protein, a fluorescent material labeled peptide became less likely to bind to GPC-3.

T1 sequence (P51654 25-554): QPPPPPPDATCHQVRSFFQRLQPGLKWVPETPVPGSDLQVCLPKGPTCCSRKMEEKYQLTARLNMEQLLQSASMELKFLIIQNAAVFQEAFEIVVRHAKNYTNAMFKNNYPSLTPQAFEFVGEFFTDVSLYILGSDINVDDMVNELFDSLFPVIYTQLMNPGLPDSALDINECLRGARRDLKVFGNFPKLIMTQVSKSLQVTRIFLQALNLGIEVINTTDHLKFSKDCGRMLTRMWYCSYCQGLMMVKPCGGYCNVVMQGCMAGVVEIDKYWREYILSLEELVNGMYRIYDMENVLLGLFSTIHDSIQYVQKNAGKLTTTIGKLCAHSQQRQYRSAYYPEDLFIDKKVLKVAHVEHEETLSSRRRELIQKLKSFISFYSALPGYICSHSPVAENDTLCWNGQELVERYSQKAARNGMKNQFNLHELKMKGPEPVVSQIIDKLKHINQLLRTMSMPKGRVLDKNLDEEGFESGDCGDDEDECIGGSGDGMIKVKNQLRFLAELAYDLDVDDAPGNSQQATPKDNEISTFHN

With “FITC-RLNVGGTYFLTTRQ ({FITC}-RLNVGGTYFLTTRQ)”, the “fluorescence by FITC (overlay, FIG. 7)” value with GPC-3 protein [1] (cell lines in which GPC-3 protein was expressed: HepG2, Huh-7, SkMe128, HEK-293 with GPC-3) is given as “fluorescence by FITC was observed”; in assay [2] (renal cell lines in which GPC-3 protein was not expressed: HEK-293, Cos-7), “fluorescence was not observed”. Also, the “fluorescence by FITC in presence of equivalent peptide to which FITC was not bound (FIG. 9)” value with GPC-3 protein [3] is recorded as “fluorescence was not observed”.
As for FITC-YFLTTRQ ({FITC}-YFLTTRQ), the “fluorescence by FITC (overlay, FIG. 8)” value is given as “fluorescence by FITC was observed” with GPC-3 protein [1] (cell lines in which GPC-3 protein was expressed: HepG2, SkMe128, HEK-293 with GPC-3) and “fluorescence was not observed” in assay [2] (renal cell line in which GPC-3 protein was not expressed: Cos-7).
